The values that follow come from patent US20240294638A1 (LES LABORATOIRES SERVIER, published 2024).

Substitutions are numbered along the chain they refer to. Names and notes keep the numbering of the source.

The target of assay [1] is T1, human NKG2A and human CD94 expressed on transiently transfected CHO-S cells (human, UniProt Q13241 1-179).
T1 construct: whole, on cells; also called human NKG2A/CD94 heterodimer
The experiment in a line: flow cytometry, transiently transfected CHO-S cells, AF647 goat anti-human IgG secondary (MFI) [cont.), panel 24135]. The protocol:
(§1) CHO-S cells were transiently transfected with human NKG2A and human CD94, human NKG2C and human CD94, cynomolgus NKG2A and cynomolgus CD94 or cynomolgus NKG2C and cynomolgus CD94 constructs. Mock transfected CHO-S cells were included in the assay as a negative control. Antibodies were tested for binding to the transfected cells in 3-fold dilutions from 30 μg/mL down to 0.5 ng/ml antibody, and 0 μg/mL antibody, and incubated for 30 min at 4° C. Following a washing step, the cells were incubated with a fluorescent goat anti-human IgG (H+L) secondary antibody (A-21445, Invitrogen) for 30 min at 4° C. in the dark. After a second wash, the cells were tested by high throughput flow cytometry (IQue screener, Sartorius). Data were transferred to Excel and graphs were generated using GraphPad Prism® software.
On the technique in general: A flow cytometer gives signals particle by particle.

Assay [2] addresses T2, cynomolgus NKG2A and cynomolgus CD94 expressed on transiently transfected CHO-S cells (cynomolgus, UniProt Q68VD2 1-233; Q68VD4 1-179).
T2 construct: whole, on cells
The experiment in a line: blocking of PE-conjugated HLA-E pentamer binding to transiently transfected CHO-S cells, flow cytometry (percentage binding) [panel B cNKG2A]. As to the method:
(§2) CHO-S cells were transiently transfected with constructs for expression of human NKG2A and human CD94, human NKG2C and human CD94, cynomolgus NKG2A and cynomolgus CD94, or cynomolgus NKG2C and cynomolgus CD94. Mock transfected CHO-S cells were included in the assay as negative control. A PE-conjugated HLA-E pentamer was tested for binding to the heterodimers in the presence of anti-human NKG2A antibodies in 3-fold serial dilutions from 10 μg/mL down to 14 ng/mL antibody, and 0 μg/mL antibody. The antibodies were allowed to bind for 30 min at 4° C. prior to the addition of the HLA-E pentamer in a 1:50 dilution. The fluorescence intensity of HLA-E binding to the transfected cells was measured by high throughput flow cytometry (IQue screener, Sartorius). Data were transferred to Excel and graphs were generated using GraphPad Prism® software.

The next assay has as its target T3, CD94 homodimer (human, UniProt Q13241 32-179, limits assumed).
T3 sequence (looked up): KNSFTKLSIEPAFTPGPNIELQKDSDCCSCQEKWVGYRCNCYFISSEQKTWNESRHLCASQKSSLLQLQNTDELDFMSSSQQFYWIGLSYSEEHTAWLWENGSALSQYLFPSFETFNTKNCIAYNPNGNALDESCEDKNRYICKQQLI
The experiment in a line: SPR. As to the method: (§3) Kinetic binding analysis of anti-NKG2A monoclonal antibodies (mAbs) was performed by Surface Plasmon Resonance (SPR) using a Continuous Flow Microspotter (CFM, Wasatch Microfluidics, Salt Lake City, US) combined with an IBIS MX96 SPR instrument (IBIS Technologies, The Netherlands). The extracellular domains (ECDs) of human his-tagged NKG2A, NKG2C and FLAG-tagged CD94 were co-expressed using an Expi293™ expression system and purified by standard Ni-NTA chromatography followed by anti-Flag M2 affinity gel (A2220, Sigma). Binding kinetics were measured by capturing mAbs on a G-a-hu-IgG Fc SensEye® for 15 minutes using the CFM. After spotting, the SensEye® was positioned in the IBIS MX96 biosensor and immobilized mAbs were fixed by SensEye FixIt kit. Kinetic analysis was performed by applying a kinetic titration series injecting increasing concentrations of antigens from 1.6 nM to 400 nM as 2-fold dilutions. After each cycle of antigen injection, the surface was regenerated by 100 mM H₃PO₄, pH 3. Antigen association and dissociation were measured for 15 minutes. The recorded binding responses were fitted to a simple 1:1 binding model with Scrubber 2.0 software for calculation of the on-rate (kₒₙ or kₐ), off-rate (Koff or kd) and affinity (KD) constants. Binding kinetic parameters were measured as an average of three independent measuring points.
The binding affinities and kinetic parameters of the anti-NKG2A mAbs binding to NKG2A/CD94 and NKG2C/CD94 heterodimers are shown in Table 7. […] None of the mAbs bound to CD94 homodimer (data not shown).
Background: SPR reads the build-up and loss of mass on a sensor chip optically.

Assay [3] concerns the target T4, recombinant human NKG2C/CD94 heterodimer (extracellular domains) (human, UniProt P26717 94-231; Q13241 32-179).
T4 construct: extracellular domain; also called HuNKG2C/huCD94; NKG2C/CD94 ECDs
Kind of assay: SPR (IBIS MX96), mAb captured on anti-human IgG Fc, ECD heterodimer injected, 1:1 fit. The protocol: as §3

The target in assay [4] is T5, recombinant human NKG2A/CD94 heterodimer (extracellular domains) (human, UniProt Q13241 32-179).
T5 construct: extracellular domain; ECDs co-expressed in Expi293, purified by Ni-NTA and anti-Flag; also called HuNKG2A/huCD94; NKG2A/CD94 ECDs
Described as above. The protocol: as §3

Assay [5] deals with T1, human NKG2A and human CD94 expressed on …. The experiment in a line: flow cytometry, CHO-S cells transiently transfected with NKG2A variant and CD94, AF647 goat anti-human IgG secondary (MFI) [cont.), panel 24135]. As to the method:
(§4) Six anti-human NKG2A antibodies were tested for binding to the different heterodimers expressed. Antibodies were tested for binding to the transfected cells in 3-fold serial dilutions from 1 μg/mL antibody, and 0 μg/ml antibody, and incubated for 30 min at 4° C. Following a washing step, the cells were incubated with a fluorescent goat anti-human IgG (H+L) secondary antibody (A-21445, Invitrogen) for 30 min at 4° C. in the dark. After a second wash, the cells were tested by high throughput flow cytometry (IQue screener, Sartorius). Data were transferred to Excel and graphs were generated using GraphPad Prism® software. A reference antibody analogue and an isotype control were included for comparison.

Assay [6] addresses T6, I225M (Homo sapiens).
T6 construct: co-expressed on CHO-S cells; also called human NKG2A I225M / human CD94 heterodimer on CHO-S cells
The description is as above. As to the method:
as §4

Assay [7] deals with NKG2A on primary human NK cells (human, UniProt P26715 1-233). Kind of assay: cell-based or functional assay.
For assay [8], the target named is T1, human NKG2A and human CD94 expressed on …. The experiment in a line: flow cytometry, CHO-S cells transiently transfected with NKG2A variant and CD94, AF647 goat anti-human IgG secondary (MFI) [cont.), panel 23765]. As to the method:
as §4

A further assay has as its target T7, I168S (Homo sapiens).
T7 construct: co-expressed on CHO-S cells; also called human NKG2A I168S / human CD94 heterodimer on CHO-S cells
The assay is described as above. The protocol:
as §4

Assay [9] has as its target T6, I225M. The assay is described as above. As to the method:
as §4

The target in assay [10] is T1, human NKG2A and human CD94 expressed on …. The experiment in a line: flow cytometry, transiently transfected CHO-S cells, AF647 goat anti-human IgG secondary (MFI) [cont.), panel 23765]. As to the method:
as §1

For assay [11], the target named is T2, cynomolgus NKG2A and cynomolgus CD94 …. The assay is described as above. The protocol:
as §1

The target of assay [12] is T1, human NKG2A and human CD94 expressed on …. The experiment in a line: blocking of PE-conjugated HLA-E pentamer binding to transiently transfected CHO-S cells, flow cytometry (percentage binding) [panel A hNKG2A]. As to the method:
as §2

Assay [13] has as its target T6, I225M. The experiment in a line: flow cytometry, CHO-S cells transiently transfected with NKG2A variant and CD94, AF647 goat anti-human IgG secondary (MFI) [cont.), panel 24208]. As to the method:
as §4

NKG2A on primary human NK cells, sequence (P26715 whole entry): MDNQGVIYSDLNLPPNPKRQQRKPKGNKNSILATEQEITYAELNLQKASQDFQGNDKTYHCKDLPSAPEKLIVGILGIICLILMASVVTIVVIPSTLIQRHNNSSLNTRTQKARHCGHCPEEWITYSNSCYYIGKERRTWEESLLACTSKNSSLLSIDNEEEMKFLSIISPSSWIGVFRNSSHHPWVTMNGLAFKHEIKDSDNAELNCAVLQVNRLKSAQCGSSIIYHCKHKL
T6 sequence (P26715 whole entry I225M): as the sequence (P26715 whole entry) above, with I225M counted along it
T7 sequence (P26715 whole entry I168S): as the sequence (P26715 whole entry) above, with I168S counted along it

B1: antibody 24135 (antibody, human IgG1, kappa, L234A L235A, V domains shown)
VH: QVQLQESGPGLVKPSETLSLTCTVSGGSVSSGHYYWSWIRQPPGKGLEWIGYIYYSGSTTYNPSLKSRVSISVDTSKHQFSLKLSSVTAADTAVYYCARWAGSYQPYYYYYGMDVWGQGTTVTVSS
VL: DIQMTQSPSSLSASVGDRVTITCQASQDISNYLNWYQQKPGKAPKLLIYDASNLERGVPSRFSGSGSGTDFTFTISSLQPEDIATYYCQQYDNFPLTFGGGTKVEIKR
notes: Fully human IgG1-LALA (L234A/L235A), kappa; also called mAb 24135
With B1, the “EC50 (read off the curve)” value in assay [1] is about 0.02 µg/mL; in assay [5] it was about 0.005 µg/mL; in the assay with I225M [6], about 0.006 µg/mL. The binding result in [2] is “no binding (tested: 10000 ng/ml)”; with CD94 homodimer, “no binding”. For the same molecule, the Kd in [3] was determined as 147 nM; in assay [4], 3.7 nM. The dissociation rate constant (koff) in [3] is 0.00098 s⁻¹; in assay [4], 0.0013 s⁻¹. In addition, the figures for the kon in [3] and in assay [4] were 6700 M⁻¹ s⁻¹ and 340000 M⁻¹ s⁻¹, respectively.

B2: BMS-NKG2A.11 (antibody, human IgG1, kappa, V domains shown)
VH: EVQLVESGGGLVKPGGSLRLSCAASGFTFSSHSMNWVRQAPGKGLEWVSAISSSSSYIYYADSVKGRFTISRDNAKNSLYLQMNSLRAEDTAVYYCAREEWGLPFDYWGQGTLVTVSS
VL: AIQLTQSPSSLSASVGDRVTITCRASQGIPSALAWYQQKPGKAPKLLIYDASSLKSGVPSRFSGSGSGTDFTLTISSLQPEDFATYYCQQFNSYPLTFGQGTRLEIKR
Take B2: the “EC50 (ug/mL) of induced NK cell cytotoxicity, median (n = 6)” value in assay [7] stood at 0.71 µg/mL.

B3: antibody 23765 (antibody, human IgG1, kappa, L234A L235A, V domains shown)
VH: B2 VH with S31C, H32C, S33R, A50S, E99D, E100G, G102N, L103D, P104V
VL: EIVLTQSPATLSLSPGERATLSCRASQSVSSYLAWYQQKPGQAPRLLIYDASNRATGIPARFSGSGSGTDFTLTISSLEPEDFAVYYCQQRSNWPLTFGGGTKVEIKR
notes: Fully human IgG1-LALA (L234A/L235A), kappa
B3: the “EC50 (read off the curve)” value in assay [8] was about 0.01 µg/mL; with I168S it was about 0.01 µg/mL; with I225M [9] it was about 0.01 µg/mL; in assay [10] it was about 0.04 µg/mL; in assay [11], about 0.02 µg/mL. The Kd worked out at 717 nM in assay [3] and 15 nM in assay [4]. The koff was determined as 0.00156 s⁻¹ in [3] and 0.0013 s⁻¹ in assay [4]. For the same molecule, the kon came to 2180 M⁻¹ s⁻¹ in [3] and 88000 M⁻¹ s⁻¹ in assay [4]. In addition, in assay [12], the “IC50 (read off the curve)” value was about 0.6 µg/mL.

B4: antibody 24208 (antibody, human IgG1, kappa, L234A L235A, V domains shown)
VH: QVQLVESGGGLVKPGGSLRLSCAASGFTFSDYYMRWIRQAPGKGLEWVSHISTSGSTIYYADSVKGRFTISRDNAKNSLYLQMNSLRAEDTAVYYCARDHYYSRGVIGYWGQGTLVTVSS
VL: DIQMTQSPSSVSASVGDRVTITCRASQGISSWLAWYQQKPGKAPKLLIYAASSLQSGVPSRFSGSGSGTDFTLTISSLQPEDFATYYCQQANSFPYTFGQGTKLEIKR
notes: Fully human IgG1-LALA (L234A/L235A), kappa; also called mAb 24208; 24208 (IgG1 LALA)
Consider B4, for which the binding result in assay [2] is “no binding (tested: 10000 ng/ml)”; with CD94 homodimer, “no binding”. Further, the “EC50 (read off the curve)” value with I225M [13] is about 0.004 µg/mL. Further, the “EC50 (ug/mL) of induced NK cell cytotoxicity, median (n = 19)” value in assay [7] came to 0.19 µg/mL.

B5: BMS-NKG2A.9 (antibody, human IgG1, kappa, V domains shown)
VH: B2 VH
VL: B2 VL with P30S
On to B5, for which the “EC50 (ug/mL) of induced NK cell cytotoxicity, median (n = 7)” value in [7] is 1.07 µg/mL.

As a reminder, the EC50 (read off the curve) is the concentration at which the effect is half-maximal. The low end stands for a more potent agent, the high end for a less potent agent. By Kd is commonly meant the constant that tells how readily two partners part at equilibrium. One may read the koff as the first-order rate constant of dissociation. A word on the kon: it is the second-order rate constant of association.
